The source of these data is patent US20210315933A1 (TCR2 THERAPEUTICS, published 2021).

For assay [1], the target named is T1, recombinant human IL13Rα2 fused to an Fc domain of human IgG1 (hIL13Rα2-Fc) (human, UniProt Q14627 27-343, limits assumed).
T1 construct: Bought construct (R&D Systems); The Fc can be removed by Factor Xa, so a Factor Xa site lies between the parts; not shown: Fc domain of human IgG1
T1 sequence (looked up): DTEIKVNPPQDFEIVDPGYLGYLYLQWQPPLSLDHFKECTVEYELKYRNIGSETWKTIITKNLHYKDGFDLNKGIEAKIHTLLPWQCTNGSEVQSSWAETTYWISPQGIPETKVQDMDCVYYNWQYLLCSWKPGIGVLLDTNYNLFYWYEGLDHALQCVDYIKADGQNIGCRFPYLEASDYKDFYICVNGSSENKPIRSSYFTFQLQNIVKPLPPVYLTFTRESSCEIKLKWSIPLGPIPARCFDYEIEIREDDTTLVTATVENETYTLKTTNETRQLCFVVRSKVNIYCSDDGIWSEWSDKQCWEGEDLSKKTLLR
Kind of assay: Octet KD relative to clone 2 parental. The method, then:
(§1) Two clones were chosen for humanization. […] Each humanized nanobody was analyzed by Octet at 500 nM on an Ni-NTA sensor, with three fold dilutions of antigen (IL13Rα2-Fc) at 125 nM, 41.66 nM, and 13.86 nM. A summary of the octed measurements for each of the humanized variants depicted in FIG. 1 is shown in Table 1 (clone 1) and Table 2 (clone 2).
Background: Biolayer interferometry detects binding as a change in optical thickness at a sensor tip.

Assay [2] has as its target T1, recombinant human IL13Rα2 fused to an …. Kind of assay: Octet (BLI); nanobody on Ni-NTA sensor, IL13Rα2-Fc in solution. How it is done: as §1
Assay [3] deals with T2, human IL13Rα2 on cells (human, UniProt Q14627 27-380).
T2 construct: whole, on cells; also called hIL13Rα2
T2 sequence (looked up): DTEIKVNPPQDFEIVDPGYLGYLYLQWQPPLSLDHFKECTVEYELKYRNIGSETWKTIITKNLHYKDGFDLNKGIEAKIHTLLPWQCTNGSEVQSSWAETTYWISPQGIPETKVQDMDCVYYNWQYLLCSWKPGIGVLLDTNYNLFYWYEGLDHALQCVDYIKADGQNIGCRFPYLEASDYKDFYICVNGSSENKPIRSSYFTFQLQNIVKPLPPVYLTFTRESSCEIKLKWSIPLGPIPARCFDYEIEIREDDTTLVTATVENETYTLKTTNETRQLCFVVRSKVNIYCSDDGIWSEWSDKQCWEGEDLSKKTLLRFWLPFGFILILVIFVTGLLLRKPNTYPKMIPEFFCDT
Description: flow cytometry; cell line not stated.

Assay [4] deals with T2, human IL13Rα2 on cells. Description: flow cytometry; cell line not stated. The source holds these as a separate data set.
Assay [5] deals with T1, recombinant human IL13Rα2 fused to an …. Description: Octet KD relative to clone 1 parental. How it is done:
as §1

For assay [6], the target named is T3, Human MUC16 polypeptide (MUC16 ectodomain peptide) (human).
T3 construct: Analyte of the Octet titration and antigen of the binning assay; also called MUC16 peptide; MUC16^ecto peptide
T3 peptide: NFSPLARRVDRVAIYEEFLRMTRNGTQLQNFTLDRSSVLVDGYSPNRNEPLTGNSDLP
Description: Octet (BLI), NTA biosensor; His-tagged sdAb on sensor, MUC16 peptide titrated; 1:1 global fit. The method, then:
FIGS. 5A-C show titration and measurement of binding affinity of parental (llama) and humanized anti-MUC16 single chain antibody (VHH). FIG. 5A is a diagram illustrating the experimental procedure by which the VHH binders produced in Example 5 are screened using an NTA biosensor (nickel coated surface). The His-tagged MUC16 sdAbs (3.25 μg/ml) are bound to the biosensor, and the MUC16 peptide is added at concentrations of 0, 1.56, 6.25, 25, 50, 100 or 200 nM. Buffer: 1× Octet; 1× Corning® Cellgro® PBS (cat. 21-040-CM) containing 0.02% Tween® 20 at 30° C. Sensors: Pall Forte Bio Dip & Read (cat. 18-5102). FIG. 5B (clone R3Mu4 parental and humanized variants) and FIG. 5C (clone R3Mu29 parental and humanized variants) show binding kinetics of the sdAbs to the MUC16 target (see also Table 1). These curves were used to derive binding affinity constant for each protein and to assess the effect of humanization on antigen binding.
The VHH binders produced in Example 5 are screened using an NTA biosensor (nickel column, see FIG. 5A for a drawing outlining the method). The His-tagged MUC16 sdAbs (3.25 μg/ml) are bound to the column, and then the MUC16 peptide is passed through the column at concentrations of 200, 100, 50, 25, 6.25, 1.56, and 0 nM. Buffer: 1× Corning® Cellgro® PBS pH 7.4 (cat. 21-040-CM) containing 0.02% Tween® 20) at 30° C. Sensors: Pall Forte Bio Dip & Read (cat. 18-5102).

The Kd is the equilibrium constant for the complex coming apart.

Where two headings read alike, the source gives them in different places.

B1: anti-IL13Rα2 Clone 2 humanized variant 2-h6 (VHH)
VHH: EVQLVESGGGLVQPGGSLRLSCAASGFASDDYIMGWFRQAPGKGLEGVSCISSRYANTVYADSVKGRFTISRDNAKNTLYLQMNSLRPEDTAVYYCAMDSRRVTCPEISTMHRNFDSWGQGTQVTVSS
Regarding B1, in assay [1], the KD fold difference is 1.4 fold. For the same molecule, the dissociation constant (Kd) in assay [2] stood at 1130 nM. Further, the “Flow Cytometry MFI” value in assay [3] amounted to 2870 MFI.

B2: Humanized Llama single domain anti-IL13Rα2 Clone 2-h10 (H2-LSD2) (VHH)
VHH: EVQLVESGGGLVQPGGSLRLSCAASGFASDDYIMGWVRQAPGKGLEWVSCISSRYANTYYADSVKGRFTISRDNAKNTLYLQMNSLRPEDTAVYYCAMDSRRVTCPEISTMHRNFDSWGQGTLVTVSS
notes: Captured on a Ni-NTA sensor, so a His tag is implied; the tag is not described
As for B2, the KD fold difference in assay [1] stood at 4.1 fold. Besides, the Kd in assay [2] is 3310 nM. Moreover, the “Flow Cytometry MFI” value in assay [3] was 1120 MFI.

B3: Humanized Llama Single domain anti-IL13Rα2 Clone 1-h8 (H1-LSD1) (VHH)
VHH: EVQLVESGGGLVQPGGSLRLSCAASGFTSDYYIMGWFRQAPGKGLEGVSCISSKYANTYYADSVKGRFTISRDNAKNTLYLQMNSLRPEDTAVYYCAADTRRYTCPDIATMHRNFDSWGQGTLVTVSS
notes: as for B2
For the molecule B3, in assay [4], the “Flow Cytometry MFI” value came to 1240 MFI. In addition, in assay [2], the Kd came to 1.94 nM. Moreover, in assay [5], the KD fold difference turned out to be 3.1 fold.

B4: Humanized Llama Single domain anti-IL13Rα2 Clone 2-h8 (H1-LSD2) (VHH)
VHH: EVQLVESGGGLVQPGGSLRLSCAASGFASDDYIMGWFRQAPGKGLEGVSCISSRYANTYYADSVKGRFTISRDNAKNTLYLQMNSLRPEDTAVYYCAMDSRRVTCPEISTMHRNFDSWGQGTLVTVSS
notes: as for B2
Consider B4, for which the KD fold difference in assay [1] is 1.2 fold. The Kd in assay [2] was 950 nM. Further, the “Flow Cytometry MFI” value in assay [3] stood at 2020 MFI.

B5: single domain anti-MUC16 binder R3MU4 (VHH)
VHH: QVQLQESGGGLVQAGGSLRLSCAASGRTVSSLFMGWFRQAPGKERELVAAISRYSLYTYYADSVKGRFTISADNAKNAVYLQMNSLKPEDTAVYYCASKLEYTSNDYDSWGQGTQVTVSS
notes: also called Parental R3Mu4; parental (llama) R3Mu4; not shown: C-terminal tags (pMECS GG: HA tag and His6 tag; His-tagged in the Octet assay)
The molecule B5 returned a Kd in assay [6] of 10.2 nM.

B6: Single domain anti-MUC16 R3MU29 (VHH)
VHH: QVQLQESGGGLVQAGDSLRLSCAASGRAVSSLFMGWFRRAPGKERELVAAISRYSLYTYYADSVKGRFTISADNAKNAVYLQMNSLKPEDTAVYYCASKLEYTSNDYDSWGQGTQVTVSS
notes: also called Parental R3Mu29; parental (llama) R3Mu29; not shown: C-terminal tags (pMECS GG: HA tag and His6 tag; His-tagged in the Octet assay)
B6: in assay [6], the dissociation constant Kd came out at 6.3 nM.

B7: R3MU4h11 (96.7% human) (VHH)
VHH: EVQLVESGGGLVQPGGSLRLSCAASGRTVSSLFMGWFRQAPGKGLELVSAISRYSLYTYYADSVKGRFTISRDNAKNTLYLQMNSLRPEDTAVYYCASKLEYTSNDYDSWGQGTLVTVSS
notes: also called R3Mu4 h11#2; not shown: His tag (His-tagged MUC16 sdAbs)
B7 gave a dissociation constant Kd in assay [6] of 10.9 nM.

B8: R3MU29h13 (96.7% human) (VHH)
VHH: EVQLVESGGGLVQPGGSLRLSCAASGRAVSSLFMGWFRQAPGKGLELVSAISRYSLYTYYADSVKGRFTISRDNAKNTLYLQMNSLRPEDTAVYYCASKLEYTSNDYDSWGQGTLVTVSS
notes: also called R3Mu29_h13#11; not shown: His tag (His-tagged MUC16 sdAbs)
With B8, in assay [6], the affinity, expressed as Kd, was 8.3 nM.

B9: R3MU4h12 (97.8% human) (VHH)
VHH: EVQLVESGGGLVQPGGSLRLSCAASGRTVSSLFMGWFRQAPGKGLEWVSAISRYSLYTYYADSVKGRFTISRDNAKNTLYLQMNSLRPEDTAVYYCASKLEYTSNDYDSWGQGTLVTVSS
notes: also called R3Mu4 h12#2; not shown: His tag (His-tagged MUC16 sdAbs)
Take B9: binding in assay [6] was put at a Kd of 94.6 nM.

B10: R3MU4h13 (98.9% human) (VHH)
VHH: EVQLVESGGGLVQPGGSLRLSCAASGRTVSSLFMGWVRQAPGKGLEWVSAISRYSLYTYYADSVKGRFTISRDNAKNTLYLQMNSLRPEDTAVYYCASKLEYTSNDYDSWGQGTLVTVSS
notes: not shown: His tag (His-tagged MUC16 sdAbs)
In the case of B10, the Kd in assay [6] was determined as 36.2 nM.

B11: R3MU29h15 (98.9% human) (VHH)
VHH: EVQLVESGGGLVQPGGSLRLSCAASGRAVSSLFMGWVRQAPGKGLEWVSAISRYSLYTYYADSVKGRFTISRDNAKNTLYLQMNSLRPEDTAVYYCASKLEYTSNDYDSWGQGTLVTVSS
notes: also called R3Mu29_h15#16; not shown: His tag (His-tagged MUC16 sdAbs)
Turning to B11, the Kd in assay [6] turned out to be 22.9 nM.

B12: R3MU29h14 (97.8% human) (VHH)
VHH: EVQLVESGGGLVQPGGSLRLSCAASGRAVSSLFMGWFRQAPGKGLEWVSAISRYSLYTYYADSVKGRFTISRDNAKNTLYLQMNSLRPEDTAVYYCASKLEYTSNDYDSWGQGTLVTVSS
notes: also called R3Mu29_h14#13; not shown: His tag (His-tagged MUC16 sdAbs)
On to B12, for which the equilibrium dissociation constant (Kd) in assay [6] came out at 36.4 nM.

B13: Llama single domain anti-IL13Rα2 Clone 1 (LSD1) (VHH)
VHH: DVQLVESGGGLVQPGGSLRLSCAASGFTSDYYIIGWFRQAPGKEREGVSCISSKYANTNYADSVKGRFTQSRGAAKNTVYLQMNALKPEDTAVYYCAADTRRYTCPDIATMHRNFDSWGQGTQVTVSS
notes: Captured on a Ni-NTA sensor in the Octet assay, so a His tag is implied; the tag is not described for this construct; also called parental; clone 1 parental
For B13, the “Flow Cytometry MFI” value in assay [4] worked out at 2270 MFI. The dissociation constant Kd in assay [2] stood at 0.63 nM. Besides, the KD fold difference in assay [5] was 1 fold.

B14: Llama single domain anti-IL13Rα2 Clone 2 (LSD2) (VHH)
VHH: DVQLVESGGGLVQPGGSLRLSCEASGFASDDYIIGWFRQAPGKEREGVSCISSRYANTVYTDSVKGRFRISRGTAKNTVYLQMSALKPEDTAVYYCAMDSRRVTCPEISTMHRNFDSWGQGTQVTVSS
notes: Captured on a Ni-NTA sensor, so a His tag is implied; the tag is not described; also called 2-parental; clone 2 parental
B14: the KD fold difference in assay [1] was 1 fold. In addition, the Kd in assay [2] is 810 nM. In assay [3], the “Flow Cytometry MFI” value was found to be 3650 MFI.

B15: anti-IL13Rα2 Clone 2 humanized variant 2-h5 (VHH)
VHH: EVQLVESGGGLVQPGGSLRLSCAASGFASDDYIMGWFRQAPGKGLEGVSCISSRYANTVYADSVKGRFTISRDNAKNTVYLQMNSLRPEDTAVYYCAMDSRRVTCPEISTMHRNFDSWGQGTQVTVSS
Consider B15, for which, in assay [1], the KD fold difference is 1.1 fold. The Kd in assay [2] is 870 nM. Besides, in assay [3], the “Flow Cytometry MFI” value was found to be 1450 MFI.

B16: anti-IL13Rα2 Clone 2 humanized variant 2-h4 (VHH)
VHH: EVQLVESGGGLVQPGGSLRLSCAASGFASDDYIMGWFRQAPGKGLEGVSCISSRYANTVYADSVKGRFTISRGNAKNTVYLQMNSLRPEDTAVYYCAMDSRRVTCPEISTMHRNFDSWGQGTQVTVSS
For the molecule B16, the KD fold difference in assay [1] worked out at 1.2 fold. Moreover, in assay [2], the dissociation constant Kd was 960 nM. Moreover, the “Flow Cytometry MFI” value in assay [3] was found to be 3060 MFI.

B17: anti-IL13Rα2 Clone 2 humanized variant 2-h3 (VHH)
VHH: EVQLVESGGGLVQPGGSLRLSCAASGFASDDYIMGWFRQAPGKGLEGVSCISSRYANTVYADSVKGRFTISRGNAKNTVYLQMSSLRPEDTAVYYCAMDSRRVTCPEISTMHRNFDSWGQGTQVTVSS
B17: the KD fold difference in assay [1] was 1.1 fold. Also, the equilibrium dissociation constant (Kd) in assay [2] was found to be 910 nM. Moreover, the “Flow Cytometry MFI” value in assay [3] came to 3070 MFI.

B18: anti-IL13Rα2 Clone 2 humanized variant 2-h1 (VHH)
VHH: EVQLVESGGGLVQPGGSLRLSCAASGFASDDYIMGWFRQAPGKGLEGVSCISSRYANTVYADSVKGRFRISRGNAKNTVYLQMSALRPEDTAVYYCAMDSRRVTCPEISTMHRNFDSWGQGTQVTVSS
As for B18, the KD fold difference in assay [1] was 1.1 fold. The Kd in assay [2] was 930 nM.
